B1: WD repeat domain-containing protein 83 (Homo sapiens), Q9BRX9 (parent)
chain: MAFPEPKPRPPELPQKRLKTLDCGQGAVRAVRFNVDGNYCLTCGSDKTLKLWNPLRGTLLRTYSGHGYEVLDAAGSFDNSSLCSGGGDKAVVLWDVASGQVVRKFRGHAGKVNTVQFNEEATVILSGSIDSSIRCWDCRSRRPEPVQTLDEARDGVSSVKVSDHEILAGSVDGRVRRYDLRMGQLFSDYVGSPITCTCFSRDGQCTLVSSLDSTLRLLDKDTGELLGEYKGHKNQEYKLDCCLSERDTHVVSCSEDGKVFFWDLVEGALALALPVGSGVVQSLAYHPTEPCLLTAMGGSVQCWREEAYEAEDGAG
B2: EF-hand calcium-binding domain-containing protein 4B (Homo sapiens), Q9BSW2 (parent)
chain: MAAPDGRVVSRPQRLGQGSGQGPKGSGACLHPLDSLEQKETQEQTSGQLVMLRKAQEFFQTCDAEGKGFIARKDMQRLHKELPLSLEELEDVFDALDADGNGYLTPQEFTTGFSHFFFSQNNPSQEDAGEQVAQRHEEKVYLSRGDEDLGDMGEDEEAQFRMLMDRLGAQKVLEDESDVKQLWLQLKKEEPHLLSNFEDFLTRIISQLQEAHEEKNELECALKRKIAAYDEEIQHLYEEMEQQIKSEKEQFLLKDTERFQARSQELEQKLLCKEQELEQLTQKQKRLEGQCTALHHDKHETKAENTKLKLTNQELARELERTSWELQDAQQQLESLQQEACKLHQEKEMEVYRVTESLQREKAGLLKQLDFLRERNKHLRDERDICFQKNKAAKANTAASRASWKKRSGSVIGKYVDSRGILRSQSEEEEEVFGIPRRSSLGLSGYPLTEEEPGTGEPGPGGPYPRPLRRIISVEEDPLPQLLDGGFEQPLSKCSEEEEVSDQGVQGQIPEAPPLKLTPTSPRGQPVGKEALCKEESSPSAPDRLFKIVFVGNSAVGKTSFLRRFCEDRFSPGMAATVGIDYRVKTLNVDNSQVALQLWDTAGQERYRCITQQFFRKADGVIVMYDLTDKQSFLSVRRWLSSVEEAVGDRVPVLLLGNKLDNEKEREVPRGLGEQLATENNLIFYECSAYSGHNTKESLLHLARFLKEQEDTVREDTIQVGHPAKKKSCCG
partner: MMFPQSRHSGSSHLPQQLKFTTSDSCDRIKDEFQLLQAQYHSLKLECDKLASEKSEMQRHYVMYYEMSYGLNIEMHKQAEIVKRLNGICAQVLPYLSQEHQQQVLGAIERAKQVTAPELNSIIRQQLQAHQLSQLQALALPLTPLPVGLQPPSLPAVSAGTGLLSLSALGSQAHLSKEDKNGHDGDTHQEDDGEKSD
B3: Protein-lysine methyltransferase METTL21C (Homo sapiens), Q5VZV1 (parent)
chain: MDVCLSSAQQPGRRGEGLSSPGGWLEAEKKGAPQKDSTGGVLEESNKIEPSLHSLQKFVPTDYASYTQEHYRFAGKEIVIQESIESYGAVVWPGAMALCQYLEEHAEELNFQDAKILEIGAGPGLVSIVASILGAQVTATDLPDVLGNLQYNLLKNTLQCTAHLPEVKELVWGEDLDKNFPKSAFYYDYVLASDVVYHHYFLDKLLTTMVYLSQPGTVLLWANKFRFSTDYEFLDKFKQVFDTTLLAEYPESSVKLFKGILKWD
B4: Geminin (Homo sapiens), O75496 (parent)
chain: MNPSMKQKQEEIKENIKNSSVPRRTLKMIQPSASGSLVGRENELSAGLSKRKHRNDHLTSTTSSPGVIVPESSENKNLGGVTQESFDLMIKENPSSQYWKEVAEKRRKALYEALKENEKLHKEIEQKDNEIARLKKENKELAEVAEHVQYMAELIERLNGEPLDNFESLDNQEFDSEEETVEDSLVEDSEIGTCAEGTVSSSTDAKPCI
partner: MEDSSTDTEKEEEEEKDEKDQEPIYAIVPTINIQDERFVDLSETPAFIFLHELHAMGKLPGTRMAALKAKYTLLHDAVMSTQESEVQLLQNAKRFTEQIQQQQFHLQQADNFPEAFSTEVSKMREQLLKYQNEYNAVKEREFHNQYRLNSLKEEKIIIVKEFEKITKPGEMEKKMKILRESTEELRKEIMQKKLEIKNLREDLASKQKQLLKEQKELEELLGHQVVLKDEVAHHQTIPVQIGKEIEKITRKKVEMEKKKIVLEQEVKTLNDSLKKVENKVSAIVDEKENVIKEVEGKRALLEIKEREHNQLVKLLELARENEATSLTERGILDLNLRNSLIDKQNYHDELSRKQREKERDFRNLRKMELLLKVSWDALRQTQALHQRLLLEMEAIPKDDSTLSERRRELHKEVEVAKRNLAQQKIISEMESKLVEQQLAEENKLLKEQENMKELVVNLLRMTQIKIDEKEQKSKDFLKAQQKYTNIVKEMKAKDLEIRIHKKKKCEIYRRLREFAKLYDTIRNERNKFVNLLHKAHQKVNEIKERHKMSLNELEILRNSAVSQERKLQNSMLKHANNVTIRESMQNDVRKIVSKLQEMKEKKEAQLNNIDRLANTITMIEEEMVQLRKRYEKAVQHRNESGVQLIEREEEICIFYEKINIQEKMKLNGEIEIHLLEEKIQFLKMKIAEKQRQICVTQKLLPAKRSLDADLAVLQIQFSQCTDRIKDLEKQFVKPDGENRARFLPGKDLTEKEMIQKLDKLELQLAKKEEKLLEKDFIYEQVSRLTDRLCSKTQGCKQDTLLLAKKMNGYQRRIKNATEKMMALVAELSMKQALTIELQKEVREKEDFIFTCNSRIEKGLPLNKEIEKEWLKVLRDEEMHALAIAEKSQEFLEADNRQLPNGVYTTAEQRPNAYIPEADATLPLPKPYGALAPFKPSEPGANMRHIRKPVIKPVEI
B5: Caspase recruitment domain-containing protein 9 (Homo sapiens), Q9H257 (parent)
chain: MSDYENDDECWSVLEGFRVTLTSVIDPSRITPYLRQCKVLNPDDEEQVLSDPNLVIRKRKVGVLLDILQRTGHKGYVAFLESLELYYPQLYKKVTGKEPARVFSMIIDASGESGLTQLLMTEVMKLQKKVQDLTALLSSKDDFIKELRVKDSLLRKHQERVQRLKEECEAGSRELKRCKEENYDLAMRLAHQSEEKGAALMRNRDLQLEIDQLKHSLMKAEDDCKVERKHTLKLRHAMEQRPSQELLWELQQEKALLQARVQELEASVQEGKLDRSSPYIQVLEEDWRQALRDHQEQANTIFSLRKDLRQGEARRLRCMEEKEMFELQCLALRKDSKMYKDRIEAILLQMEEVAIERDQAIATREELHAQHARGLQEKDALRKQVRELGEKADELQLQVFQCEAQLLAVEGRLRRQQLETLVLSSDLEDGSPRRSQELSLPQDLEDTQLSDKGCLAGGGSPKQPFAALHQEQVLRNPHDAGLSSGEPPEKERRRLKESFENYRRKRALRKMQKGWRQGEEDRENTTGSDNTDTEGS
partner: B2 partner
B6: Programmed cell death 6-interacting protein (Homo sapiens), Q8WUM4 (parent)
chain: MATFISVQLKKTSEVDLAKPLVKFIQQTYPSGGEEQAQYCRAAEELSKLRRAAVGRPLDKHEGALETLLRYYDQICSIEPKFPFSENQICLTFTWKDAFDKGSLFGGSVKLALASLGYEKSCVLFNCAALASQIAAEQNLDNDEGLKIAAKHYQFASGAFLHIKETVLSALSREPTVDISPDTVGTLSLIMLAQAQEVFFLKATRDKMKDAIIAKLANQAADYFGDAFKQCQYKDTLPKEVFPVLAAKHCIMQANAEYHQSILAKQQKKFGEEIARLQHAAELIKTVASRYDEYVNVKDFSDKINRALAAAKKDNDFIYHDRVPDLKDLDPIGKATLVKSTPVNVPISQKFTDLFEKMVPVSVQQSLAAYNQRKADLVNRSIAQMREATTLANGVLASLNLPAAIEDVSGDTVPQSILTKSRSVIEQGGIQTVDQLIKELPELLQRNREILDESLRLLDEEEATDNDLRAKFKERWQRTPSNELYKPLRAEGTNFRTVLDKAVQADGQVKECYQSHRDTIVLLCKPEPELNAAIPSANPAKTMQGSEVVNVLKSLLSNLDEVKKEREGLENDLKSVNFDMTSKFLTALAQDGVINEEALSVTELDRVYGGLTTKVQESLKKQEGLLKNIQVSHQEFSKMKQSNNEANLREEVLKNLATAYDNFVELVANLKEGTKFYNELTEILVRFQNKCSDIVFARKTERDELLKDLQQSIAREPSAPSIPTPAYQSSPAGGHAPTPPTPAPRTMPPTKPQPPARPPPPVLPANRAPSATAPSPVGAGTAAPAPSQTPGSAPPPQAQGPPYPTYPGYPGYCQMPMPMGYNPYAYGQYNMPYPPVYHQSPGQAPYPGPQQPSYPFPQPPQQSYYPQQ

The variants in the first assay derive from B1. As to conditions: with keap1_human KEAP1, Q14145.
Chain of keap1_human KEAP1, Q14145 (Q14145 whole entry): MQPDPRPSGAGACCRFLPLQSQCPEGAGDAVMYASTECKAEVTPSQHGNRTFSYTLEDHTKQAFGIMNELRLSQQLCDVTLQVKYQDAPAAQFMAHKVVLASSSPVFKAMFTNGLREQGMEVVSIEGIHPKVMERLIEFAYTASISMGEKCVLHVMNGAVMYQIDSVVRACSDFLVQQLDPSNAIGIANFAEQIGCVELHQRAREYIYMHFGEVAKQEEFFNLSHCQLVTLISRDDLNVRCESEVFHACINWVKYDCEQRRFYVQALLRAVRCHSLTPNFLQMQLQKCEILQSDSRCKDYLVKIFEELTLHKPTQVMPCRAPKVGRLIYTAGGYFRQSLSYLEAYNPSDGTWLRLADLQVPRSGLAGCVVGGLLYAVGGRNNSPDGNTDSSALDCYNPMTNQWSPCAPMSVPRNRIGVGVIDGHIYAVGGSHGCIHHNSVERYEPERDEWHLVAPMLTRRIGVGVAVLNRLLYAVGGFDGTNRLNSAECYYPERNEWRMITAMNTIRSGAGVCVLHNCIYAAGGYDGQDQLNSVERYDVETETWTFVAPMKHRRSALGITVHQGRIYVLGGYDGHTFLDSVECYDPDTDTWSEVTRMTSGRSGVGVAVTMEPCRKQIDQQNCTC
With E144Q, the “effect of a mutation on the interaction” value is recorded as “with no effect”.

The variants in the next assay derive from B2. As to conditions: with tle5_human TLE5, Q08117.
Turning to H212Q, the “effect of a mutation on the interaction” value is “with no effect”.

A further assay covers variants of B3. Conditions: with eloc_human ELOC.
In the case of G15R, the “effect of a mutation on the interaction” value is recorded as “with no effect”.

A further assay covers variants of B4. As to conditions: with cc146_human CCDC146, Q8IYE0.
Take E167D: the “effect of a mutation on the interaction” value is reported as “with no effect”. Consider N15H, for which the “effect of a mutation on the interaction” value is given as “with no effect”.

The variants in the next assay derive from B5. As to conditions: with tle5_human TLE5, Q08117.
For R173H, the “effect of a mutation on the interaction” value was “with no effect”.

In another assay the parent is B6. As to conditions: with pdcd6_human PDCD6, O75340.
Chain of pdcd6_human PDCD6, O75340 (O75340 whole entry): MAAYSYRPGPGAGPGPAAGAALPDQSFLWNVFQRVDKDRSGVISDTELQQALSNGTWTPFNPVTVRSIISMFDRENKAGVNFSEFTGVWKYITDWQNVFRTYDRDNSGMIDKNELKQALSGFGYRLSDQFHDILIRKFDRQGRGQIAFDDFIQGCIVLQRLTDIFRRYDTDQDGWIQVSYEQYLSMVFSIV
Take G429S: the “effect of a mutation on the interaction” value is given as “with no effect”. On the same count and under the same terms, with N550S the entry was “with no effect”; with A309T, “with no effect”. With G778A, the “effect of a mutation on the interaction” value is “with no effect”. For the variant S730L, the “effect of a mutation on the interaction” value is reported as “with no effect”.

The values are drawn from IntAct's records for PubMed 31515488.
